The text below walks through data of patent US20150344540A1, “NOVEL GLP-1 RECEPTOR AGONISTS WITH CHOLESTEROL EFFLUX ACTIVITY” (NOVO NORDISK A/S, priority 2012, published 2015).

Where no end group is shown, it is not given here. [ ]: non-standard residue; d: D form. Aib = CC(C)(N)C(=O)O

For the assay, the target named is human GLP-1 receptor (human, UniProt P43220). In words: cell-based or functional assay.

B1: [Aib8,Asp23,Val25,Asp27,Glu34,Lys35,Aib36,Lys37]-GLP-1-(7-37)-peptidyl-Glu-Phe-Leu amide (peptide)
peptide: H[Aib]EGTFTSDVSSYLEGDAVKDFIAWLVEK[Aib]KEFL-NH2
modifications: N-terminus assumed
SMILES: CC[C@H](C)[C@H](NC(=O)[C@H](Cc1ccccc1)NC(=O)[C@H](CC(=O)O)NC(=O)[C@H](CCCCN)NC(=O)[C@@H](NC(=O)[C@H](C)NC(=O)[C@H](CC(=O)O)NC(=O)CNC(=O)[C@H](CCC(=O)O)NC(=O)[C@H](CC(C)C)NC(=O)[C@H](Cc1ccc(O)cc1)NC(=O)[C@H](CO)NC(=O)[C@H](CO)NC(=O)[C@@H](NC(=O)[C@H](CC(=O)O)NC(=O)[C@H](CO)NC(=O)[C@@H](NC(=O)[C@H](Cc1ccccc1)NC(=O)[C@@H](NC(=O)CNC(=O)[C@H](CCC(=O)O)NC(=O)C(C)(C)NC(=O)[C@@H](N)Cc1c[nH]cn1)[C@@H](C)O)[C@@H](C)O)C(C)C)C(C)C)C(=O)N[C@@H](C)C(=O)N[C@@H](Cc1c[nH]c2ccccc12)C(=O)N[C@@H](CC(C)C)C(=O)N[C@H](C(=O)N[C@@H](CCC(=O)O)C(=O)N[C@@H](CCCCN)C(=O)NC(C)(C)C(=O)N[C@@H](CCCCN)C(=O)N[C@@H](CCC(=O)O)C(=O)N[C@@H](Cc1ccccc1)C(=O)N[C@@H](CC(C)C)C(N)=O)C(C)C
On to B1, for which the “CRE luciferase EC50, 0% HSA” value came to 4.88 nM and the “CRE luciferase EC50, 1% HSA” value turned out to be 0.776 nM.

B2: [Tyr12,Asn14,Thr17,Glu18,Glu23,Val25,Glu34,Lys35,Aib36,Lys37]-GLP-1-(7-37)-peptidyl-Glu-Phe-Leu amide (peptide)
peptide: HAEGTYTNDVTEYLEGEAVKEFIAWLVEK[Aib]KEFL-NH2
modifications: N-terminus assumed
SMILES: CC[C@H](C)[C@H](NC(=O)[C@H](Cc1ccccc1)NC(=O)[C@H](CCC(=O)O)NC(=O)[C@H](CCCCN)NC(=O)[C@@H](NC(=O)[C@H](C)NC(=O)[C@H](CCC(=O)O)NC(=O)CNC(=O)[C@H](CCC(=O)O)NC(=O)[C@H](CC(C)C)NC(=O)[C@H](Cc1ccc(O)cc1)NC(=O)[C@H](CCC(=O)O)NC(=O)[C@@H](NC(=O)[C@@H](NC(=O)[C@H](CC(=O)O)NC(=O)[C@H](CC(N)=O)NC(=O)[C@@H](NC(=O)[C@H](Cc1ccc(O)cc1)NC(=O)[C@@H](NC(=O)CNC(=O)[C@H](CCC(=O)O)NC(=O)[C@H](C)NC(=O)[C@@H](N)Cc1c[nH]cn1)[C@@H](C)O)[C@@H](C)O)C(C)C)[C@@H](C)O)C(C)C)C(=O)N[C@@H](C)C(=O)N[C@@H](Cc1c[nH]c2ccccc12)C(=O)N[C@@H](CC(C)C)C(=O)N[C@H](C(=O)N[C@@H](CCC(=O)O)C(=O)N[C@@H](CCCCN)C(=O)NC(C)(C)C(=O)N[C@@H](CCCCN)C(=O)N[C@@H](CCC(=O)O)C(=O)N[C@@H](Cc1ccccc1)C(=O)N[C@@H](CC(C)C)C(N)=O)C(C)C
For B2, the “CRE luciferase EC50, 0% HSA” value worked out at 0.202 nM and the “CRE luciferase EC50, 1% HSA” value is 0.104 nM.

B3: [His14,Tyr20,Glu23,Val25,Glu34,Lys35,Aib36,Lys37]-GLP-1-(7-37)-peptidyl-Glu-Phe-Leu amide (peptide)
peptide: HAEGTFTHDVSSYYEGEAVKEFIAWLVEK[Aib]KEFL-NH2
modifications: N-terminus assumed
SMILES: CC[C@H](C)[C@H](NC(=O)[C@H](Cc1ccccc1)NC(=O)[C@H](CCC(=O)O)NC(=O)[C@H](CCCCN)NC(=O)[C@@H](NC(=O)[C@H](C)NC(=O)[C@H](CCC(=O)O)NC(=O)CNC(=O)[C@H](CCC(=O)O)NC(=O)[C@H](Cc1ccc(O)cc1)NC(=O)[C@H](Cc1ccc(O)cc1)NC(=O)[C@H](CO)NC(=O)[C@H](CO)NC(=O)[C@@H](NC(=O)[C@H](CC(=O)O)NC(=O)[C@H](Cc1c[nH]cn1)NC(=O)[C@@H](NC(=O)[C@H](Cc1ccccc1)NC(=O)[C@@H](NC(=O)CNC(=O)[C@H](CCC(=O)O)NC(=O)[C@H](C)NC(=O)[C@@H](N)Cc1c[nH]cn1)[C@@H](C)O)[C@@H](C)O)C(C)C)C(C)C)C(=O)N[C@@H](C)C(=O)N[C@@H](Cc1c[nH]c2ccccc12)C(=O)N[C@@H](CC(C)C)C(=O)N[C@H](C(=O)N[C@@H](CCC(=O)O)C(=O)N[C@@H](CCCCN)C(=O)NC(C)(C)C(=O)N[C@@H](CCCCN)C(=O)N[C@@H](CCC(=O)O)C(=O)N[C@@H](Cc1ccccc1)C(=O)N[C@@H](CC(C)C)C(N)=O)C(C)C
As for B3, the “CRE luciferase EC50, 0% HSA” value came to 0.338 nM and the “CRE luciferase EC50, 1% HSA” value came to 0.101 nM.

B4: [Asp9,Leu12,Ile16,Glu23,Val25,Glu34,Lys35,Aib36,Lys37]-GLP-1-(7-37)-peptidyl-Glu-Phe-Leu amide (peptide)
peptide: HADGTLTSDISSYLEGEAVKEFIAWLVEK[Aib]KEFL-NH2
B4: the “CRE luciferase EC50, 0% HSA” value came out at 0.222 nM and the “CRE luciferase EC50, 1% HSA” value was 0.062 nM.

B5: [Aib8,Glu23,Val25,His31,Glu34,Lys35,Aib36,Lys37]-GLP-1-(7-37)-peptidyl-Glu-Phe-Leu amide (peptide)
peptide: H[Aib]EGTFTSDVSSYLEGEAVKEFIAHLVEK[Aib]KEFL-NH2
modifications: N-terminus assumed
SMILES: CC[C@H](C)[C@H](NC(=O)[C@H](Cc1ccccc1)NC(=O)[C@H](CCC(=O)O)NC(=O)[C@H](CCCCN)NC(=O)[C@@H](NC(=O)[C@H](C)NC(=O)[C@H](CCC(=O)O)NC(=O)CNC(=O)[C@H](CCC(=O)O)NC(=O)[C@H](CC(C)C)NC(=O)[C@H](Cc1ccc(O)cc1)NC(=O)[C@H](CO)NC(=O)[C@H](CO)NC(=O)[C@@H](NC(=O)[C@H](CC(=O)O)NC(=O)[C@H](CO)NC(=O)[C@@H](NC(=O)[C@H](Cc1ccccc1)NC(=O)[C@@H](NC(=O)CNC(=O)[C@H](CCC(=O)O)NC(=O)C(C)(C)NC(=O)[C@@H](N)Cc1c[nH]cn1)[C@@H](C)O)[C@@H](C)O)C(C)C)C(C)C)C(=O)N[C@@H](C)C(=O)N[C@@H](Cc1c[nH]cn1)C(=O)N[C@@H](CC(C)C)C(=O)N[C@H](C(=O)N[C@@H](CCC(=O)O)C(=O)N[C@@H](CCCCN)C(=O)NC(C)(C)C(=O)N[C@@H](CCCCN)C(=O)N[C@@H](CCC(=O)O)C(=O)N[C@@H](Cc1ccccc1)C(=O)N[C@@H](CC(C)C)C(N)=O)C(C)C
As to B5, the “CRE luciferase EC50, 0% HSA” value came to 0.066 nM and the “CRE luciferase EC50, 1% HSA” value turned out to be 0.02 nM.

B6: [Aib2,Gly16,Lys29,Aib30,Leu31,Glu32,Phe33,Leu34,Glu35,Leu36,Leu37]-Exendin-4-(1-37)-peptide amide (peptide)
peptide: H[Aib]EGTFTSDLSKQMEGEAVRLFIEWLKNK[Aib]LEFLELL-NH2
modifications: N-terminus assumed
SMILES: CC[C@H](C)[C@H](NC(=O)[C@H](Cc1ccccc1)NC(=O)[C@H](CC(C)C)NC(=O)[C@H](CCCNC(=N)N)NC(=O)[C@@H](NC(=O)[C@H](C)NC(=O)[C@H](CCC(=O)O)NC(=O)CNC(=O)[C@H](CCC(=O)O)NC(=O)[C@H](CCSC)NC(=O)[C@H](CCC(N)=O)NC(=O)[C@H](CCCCN)NC(=O)[C@H](CO)NC(=O)[C@H](CC(C)C)NC(=O)[C@H](CC(=O)O)NC(=O)[C@H](CO)NC(=O)[C@@H](NC(=O)[C@H](Cc1ccccc1)NC(=O)[C@@H](NC(=O)CNC(=O)[C@H](CCC(=O)O)NC(=O)C(C)(C)NC(=O)[C@@H](N)Cc1c[nH]cn1)[C@@H](C)O)[C@@H](C)O)C(C)C)C(=O)N[C@@H](CCC(=O)O)C(=O)N[C@@H](Cc1c[nH]c2ccccc12)C(=O)N[C@@H](CC(C)C)C(=O)N[C@@H](CCCCN)C(=O)N[C@@H](CC(N)=O)C(=O)N[C@@H](CCCCN)C(=O)NC(C)(C)C(=O)N[C@@H](CC(C)C)C(=O)N[C@@H](CCC(=O)O)C(=O)N[C@@H](Cc1ccccc1)C(=O)N[C@@H](CC(C)C)C(=O)N[C@@H](CCC(=O)O)C(=O)N[C@@H](CC(C)C)C(=O)N[C@@H](CC(C)C)C(N)=O
Turning to B6, the “CRE luciferase EC50, 0% HSA” value was 1.51 nM and the “CRE luciferase EC50, 1% HSA” value was 0.552 nM.
